Measurements from article PMC3372766.

Experiments:
+315N ClpX^ΔN (E. coli) = +315N ClpX^ΔN (E. coli) (UniProt P0A6H1)
[1] = biological target: T66C P388C ClpX^ΔN (E. coli) (UniProt P0A6H1); test: cross-linking
[2] = biological target: T66C P388C E109C N331C ClpX^ΔN (E. coli) (UniProt P0A6H1); test: cross-linking
Δ315N ClpX^ΔN (E. coli) = Δ315N ClpX^ΔN (E. coli) (UniProt P0A6H1)

+315N ClpX^ΔN (from UniProt P0A6H1 61-423) (enzyme)
stoichiometry N (+315N ClpX^ΔN (E. coli)): 6

T66C P388C ClpX^ΔN (from UniProt P0A6H1 61-423) (enzyme)
percent of the protein as disulfide-bonded circular hexamer after oxidation [1]: 75%
stoichiometry N [1]: 6

T66C P388C E109C N331C ClpX^ΔN (from UniProt P0A6H1 61-423) (enzyme)
percent of the protein as circular hexamer after oxidation [2]: > 90%
stoichiometry N [2]: 6

Δ315N ClpX^ΔN (from UniProt P0A6H1 61-423) (enzyme)
stoichiometry N (Δ315N ClpX^ΔN (E. coli)): 6
